Reference: the supplement of paper PMC10567573

B1: ZNF263 (parent)
chain: PEASHLRFRRFRFQEAAGPREALS
B2: LOXL2 (parent)
chain: FSPDGPSRFRKAYKPEQPLVRLRG

Variants of: B1
Assay: protein stability index of a GFP-peptide fusion (GPS, HEK-293T) (PSI 1-6); higher = more stable
Settings: c terminus: a fixed tail appended
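Also: lentivirally expressed fusions sorted by FACS into six bins by GFP to DsRed ratio, PSI derived from sequencing read proportions per bin multiplied by bin number.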

Protein stability index, by site and new letter:
L23: I 2.48 | P 2.9 | E 3.5 | K 3.35 | V 2.93 | S 3.28 | N 3.15 | Y 1.71 | D 3.75 | W 1.91 | M 2.45 | A 3.44 | R 3.11 | G 3.04 | T 2.84 | H 3.05 | Q 2.97 | C 2.7 | F 2.58
A22: W 2.03 | E 3.15 | C 2.65 | D 3.38 | M 2.37 | I 2.28 | F 2.6 | K 2.77 | Y 2.29 | H 2.57 | R 2.8 | V 2.15 | S 2.77 | G 2.98 | Q 2.78 | L 2.51 | P 3.7 | N 2.87 | T 2.74
R12: D 3.93 | N 3.77 | V 3.61 | Q 4.36 | K 3.64 | C 1.81 | A 3.32 | T 3.59 | W 2.56 | F 2.19 | H 3.14 | P 3.39 | Y 2.4 | S 4.05 | I 2.33 | E 5.03 | L 2.99 | G 3.28 | M 3.46
E21: Q 3.03 | S 2.74 | W 2.01 | P 2.89 | G 2.4 | T 2.66 | R 2.87 | A 2.56 | N 2.71 | I 2.04 | V 1.85 | F 2.34 | L 2.41 | M 2.98 | K 2.45 | C 2.14 | D 2.54 | H 2.84 | Y 2.58
G18: E 3.44 | W 1.88 | K 2.84 | P 3.36 | H 2.98 | Q 2.81 | I 2.35 | L 2.21 | M 2.7 | C 2.67 | T 2.97 | V 2.38 | D 2.64 | F 2.26 | S 2.96 | N 2.83 | A 2.27 | R 2.65 | Y 2.14
Q14: K 3.34 | S 2.87 | A 1.81 | W 2.87 | E 3.23 | M 2.93 | L 3.22 | Y 2.26 | D 4.9 | I 1.78 | N 3 | T 2.88 | H 1.16 | P 3.29 | R 2.59 | C 1.89 | V 2.5 | G 3.68
R20: E 3.35 | Q 2.7 | D 2.9 | P 2.24 | M 2.21 | S 2.58 | K 2.38 | T 2.65 | F 1.62 | G 2.25 | Y 1.49 | N 2.99 | I 2.48 | H 2.4 | L 2.29 | V 2.65 | W 1.49 | C 2.21 | A 3.17
R10: C 2.28 | H 2.27 | M 3.12 | E 2.68 | N 2.35 | V 1.26 | P 2.11 | Y 1.91 | K 2.65 | A 2.18 | F 1.79 | I 1.86 | W 3.23 | L 2.49 | S 2.72 | G 2.62 | T 2.93 | Q 3.07 | D 3.29
A17: G 2.58 | P 2.55 | D 3.42 | V 2.55 | W 2.69 | F 1.88 | T 2.61 | I 2.15 | Q 2.75 | K 2.94 | R 2.15 | E 3.34 | S 2.54 | N 2.78 | Y 2.04 | M 2.1 | C 2.14 | L 2.21 | H 2.33
F11: G 3.89 | T 4.16 | S 3.53 | H 4.01 | C 2.45 | Y 2.76 | N 4.33 | Q 4.13 | D 3.66 | A 3.25 | I 3.1 | L 2.66 | R 4.91 | P 4.66 | K 3.85 | M 3.61 | W 2.67
R9: F 2.29 | D 2.69 | G 3.36 | Y 1.96 | V 2.21 | S 3.8 | A 3.18 | I 1.69 | C 2.44 | K 2.82 | W 1.62 | T 3.32 | M 2.78 | N 3.08 | Q 3.44 | H 1.98 | E 2.21 | L 2.8
F8: H 3.23 | W 1.94 | S 3.21 | D 3.08 | A 3.28 | N 3.46 | R 3.55 | V 3.06 | C 2.69 | G 3.29 | K 3.29 | L 2.84 | E 3.98 | M 2.8 | I 3.43 | T 3.4 | P 3.04 | Y 2.76
S24: L 2.65 | Y 2.37 | H 2.68 | W 2.37 | M 2.19 | R 2.69 | G 2.3 | N 3.28 | C 2.42 | K 2.76 | I 2.52 | V 2.2 | F 2.07 | P 2.57 | Q 2.49 | D 3.06 | E 2.79 | A 2.28 | T 2.22
R7: W 3.63 | Y 2.36
P19: F 1.76 | L 1.95 | M 2.8 | C 2.21 | R 2.71 | Y 1.69 | D 2.8 | A 2.71 | I 2.04 | H 2.73 | K 2.73 | V 2.21 | S 2.87 | Q 3.18 | G 3.11 | N 2.63 | E 3.39 | T 3.26 | W 2.04
E15: D 2.09 | H 2.04 | A 2.73 | Y 2.05 | C 2.31 | K 2.04 | S 2.54 | L 2.02 | G 2.24 | P 2.32 | T 2.74 | I 1.78 | N 2.68 | F 1.53 | M 2.38 | W 2.15 | V 2.12 | R 1.98
A16: G 2.43 | K 2.61 | P 3.25 | W 2.65 | V 2.31 | S 3.54 | D 2.99 | Y 2.1 | H 3 | E 2.36 | F 1.59 | I 2.85 | M 2.15 | R 2.88 | C 2.19 | T 2.11 | L 2.57 | N 2.69
F13: I 3.28 | R 3.56 | Q 4.18 | W 3.58 | E 3.86 | T 4.15 | L 2.65 | C 2.75 | P 3.9 | S 4.01 | V 3.61 | N 3.8 | A 3.97 | K 4.07 | Y 2.3 | G 4.17 | M 3.59 | D 4.81

Variants of: B2
Assay: as above
Settings: c terminus: a fixed tail appended

Protein stability index, by site and new letter:
F1: L 4.19 | K 3.11 | Q 3.85 | C 3.23 | A 2.9 | P 4.03 | E 3.56 | M 2.95 | S 3.92 | N 3.98 | D 3.9 | I 2.95 | G 3.2 | H 3.79 | V 3.65 | T 3.33 | R 4.12
